Measured values published in patent publication US11433139B2, “Peptide vaccines against interleukin-31” (Zoetis Services LLC, priority 2018, dated 2022).

Columns and labels:
feline IL-31 [1] = assay: Cat pruritus challenge model, subcutaneous antibody then IL-31 challenge; format: in vivo; conditions: cats, 4 mg/kg subcutaneously day 0; 0.5 μg/kg i.v. IL-31 challenge days 7, 21, 28
Experimental: The efficacy of the fully felinized anti feline IL-31 mAb ZTS-361 was assessed for its ability to neutralize pruritic behavior in an IL-31 induced in vivo cat model. […] As shown in this graph, the variance of pruritic behavior scored for both T01 and T02 groups prior to IL-31 challenge varied little with the number of pruritic events observed between 0 and 10 within the 30 minute observation period. This study differed from the preliminary feline challenge model described above in section 1.13 in that on day zero cats were dosed with 4 mg/kg ZTS-361 subcutaneously without combination with feline IL-31 to generate a pre-bound complex. This represents a more rigorous assessment of efficacy as antibody ZTS-361 will be in circulation for seven days prior to the first IL-31 challenge requiring the antibody to have sufficient exposure to bind and neutralize circulating IL-31.
For this study, pruritic behavior was assessed on days 7, 21, and 28 for 1 hour following a 0.5 μg/kg intravenous challenge of the IL-31 protein.
Target sequence in this assay (as listed by the source): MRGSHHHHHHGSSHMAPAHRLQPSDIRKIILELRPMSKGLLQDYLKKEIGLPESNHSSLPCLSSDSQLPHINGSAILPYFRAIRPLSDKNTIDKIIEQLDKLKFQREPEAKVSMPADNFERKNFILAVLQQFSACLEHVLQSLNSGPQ

canine IL-31 = biological target: T1, canine IL-31 (Canis lupus familiaris, UniProt A0A8I3S3D1); assay: Inhibition of canine IL-31 induced pSTAT3 signaling in canine DH-82 and feline FCWF4 cells; format: cell-based; conditions: canine IL-31; canine and feline cell types, cell type of the values not specified
T1 construct: made in house; host or cells: CHO cells (CHROMOS ACE system)
T1 sequence (A0A8I3S3D1 24-159): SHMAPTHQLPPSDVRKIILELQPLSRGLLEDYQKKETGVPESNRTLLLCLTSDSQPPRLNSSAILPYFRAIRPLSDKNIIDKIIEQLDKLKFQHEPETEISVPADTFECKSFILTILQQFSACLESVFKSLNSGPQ
Experimental: To identify candidates with inhibitory activity, antibodies were assessed for their ability to affect IL-31-mediated STAT3 phosphorylation in either a canine or feline cell-based assay. STAT3 phosphorylation was determined in canine DH-82 (ATCC® CRL-10389™) or feline FCWF4 macrophage-like cells (ATCC CRL-2787). DH82 and FCWF4 cells were primed with canine interferon gamma (R&D Systems, Minneapolis, Minn.) at 10 ng/mL for 24 hours or feline interferon gamma (R&D Systems, Minneapolis, Minn.) at 125 ng/mL for 96 hours, respectively, to increase receptor expression. Both cell types were serum starved for 2 hours prior to IL-31 and mAb treatment. Using two independent methods, all candidate mAbs were evaluated for their ability to inhibit either 1 μg/mL canine or 0.2 μg/mL feline IL-31 induced STAT3 phosphorylation. […] To ensure complex formation, a one hour co-incubation of mAb and IL-31 cytokine prior to cell stimulation was completed. IL-31 cell stimulation was carried out for five minutes. STAT3 phosphorylation was measured using AlphaLISA SureFire ULTRA™ technology (Perkin Elmer, Waltham, Mass.). In the case where antibody concentration and purity are unknown, hybridoma supernatants were qualitatively measured for their ability to inhibit STAT3 phosphorylation following a 1 hour co-incubation with […] IL-31. The potency of individual monoclonal antibodies defined by their ability to inhibit IL-31 mediated STAT3 phosphorylation in these assays was considered the key selection criteria for further advancement of select antibodies. The term potency refers to the IC50 value calculated from these assays and is the concentration of the antibody where signaling induced by IL-31 is reduced to one half its maximal value.

feline IL-31 [2] = assay: Inhibition of feline IL-31 induced pSTAT3 signaling in canine DH-82 cells; format: cell-based; conditions: feline IL-31, pSTAT3, canine DH82 cells (FIG. 3)
In short: (§1)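 DH-82 cells primed with canine IFN-γ 10 ng/mL for 24 h, FCWF4 with feline IFN-γ 125 ng/mL for 96 h, then serum-starved 2 h. mAb pre-incubated 1 h with 1 μg/mL canine or 0.2 μg/mL feline IL-31, cells stimulated 5 min; pSTAT3 by AlphaLISA SureFire, IC50 as half-maximal signalling reduction.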
Target sequence in this assay (as listed by the source): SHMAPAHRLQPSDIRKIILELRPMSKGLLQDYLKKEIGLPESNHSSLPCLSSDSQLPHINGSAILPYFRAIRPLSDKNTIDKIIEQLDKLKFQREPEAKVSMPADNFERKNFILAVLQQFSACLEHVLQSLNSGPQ

feline IL-31 [3] = assay: Inhibition of feline IL-31 induced pSTAT3 signaling in feline FCWF4 macrophage-like cells; format: cell-based; conditions: 0.2 μg/mL feline IL-31, pSTAT3, FCWF4 cells (FIG. 3)
In short: as §1

feline IL-31 [4] = assay: Affinity of anti-IL-31 antibodies by surface plasmon resonance (Biacore), feline IL-31 surface; format: binding; conditions: IL-31 conjugated to the surface (FIG. 2)
In short: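 IL-31 amine-coupled (NHS/EDC) at 5 μg/mL directly onto the SPR chip, quenched with ethanolamine; candidate mAbs flowed over as analyte. KD from 1:1 model fits; values below 1×10^−11 M are under the instrument's lower quantitation limit.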
Target sequence in this assay (as listed by the source): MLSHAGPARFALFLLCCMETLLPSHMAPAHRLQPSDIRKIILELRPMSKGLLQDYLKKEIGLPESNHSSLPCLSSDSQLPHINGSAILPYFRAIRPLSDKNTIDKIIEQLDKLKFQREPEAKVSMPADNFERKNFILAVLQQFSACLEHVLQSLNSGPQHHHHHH

B1: ZTS-361: felinized anti IL-31 15H05 mAb, FEL_15H05_VH1 with Feline_HC_AlleleA_1, FEL-15H05-VL1_FW2 light chain (antibody, V domains shown)
VH: QVLLVQSGAEVRTPGASVKIFCKASGYSFTSYTIHWLRQAPAQGLEWMGNINPTSGYTENNQRFKDRLTLTADTSTNTAYMELSSLRSADTAMYYCARWGFKYDGEWSFDVWGAGTTVTVSS
VL: EIQMTQSPSSLSASPGDRVTITCRASQGISIWLSWYQQKPGNIPKVLINKASNLHIGVPSRFSGSGSGTDFTLTISSLEPEDAATYYCLQSQTYPLTFGGGTKLEIK
modifications: feline constant regions joined; Felinized variable heavy mAb sequence, from Mus musculus and Felis catus; Felinized variable light mAb sequence, from Mus musculus and Felis catus
Which results are given for B1?
reduction in pruritus compared to vehicle placebo control (feline IL-31 [1]): significant reduction in pruritus; IC50 against canine IL-31 (canine IL-31): proportionally higher; potency (IC50) against feline IL-31 in canine DH82 cells (feline IL-31 [2]): highly consistent with values derived from the chimeric and mouse form; potency (IC50) against feline IL-31 in feline FCWF4 cells (feline IL-31 [3]): highly consistent with values derived from the chimeric and mouse form; affinity (KD) to feline IL-31 (feline IL-31 [4]): highly consistent with that of the mouse and chimeric form
